Experimental data reported in PMC3099712 (The Journal of Biological Chemistry, 2011).

Assays:
[1] = target: the molecule itself; test: SDS-PAGE under reducing and non-reducing conditions
[2] = target: T1, mouse IGFLR1-Fc (extracellular domain of mouse IGFLR1 fused to human IgG1 Fc) (mouse, UniProt Q3U4N7 21-158); test: SPR
T1 sequence (looked up): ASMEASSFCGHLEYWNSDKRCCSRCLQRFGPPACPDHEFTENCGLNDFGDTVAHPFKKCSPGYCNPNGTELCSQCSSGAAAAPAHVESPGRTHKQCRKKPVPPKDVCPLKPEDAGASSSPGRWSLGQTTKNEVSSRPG

B1: FLAG-mIGFL (mouse insulin growth factor-like protein) (ligand)
chain: ARKISTFSGPGSWPCNPKCDGRTYNPSEECCVHDTILPFKRINLCGPSCTYRPCFELCCPESYSPKKKFIVKLKVHGERSHCSSSPISRNCKSNKIFHGEDIEDNQLSLRKKSGDQP
For B1, the binding result [1] was “binds”, the Kd [2] was 0.15 nM and the koff [2] was 0.000157 s⁻¹. For the same binder, the kon [2] was 1.02e+06 M⁻¹ s⁻¹.

B2: FLAG-IGFL1 (human insulin growth factor-like family member 1) (ligand)
chain: GAPVAPMTPYLMLCQPHKRCGDKFYDPLQHCCYDDAVVPLARTQTCGNCTFRVCFEQCCPWTFMVKLINQNCDSARTSDDRLCRSVS
B2: binds [1].
